Entries after “also recorded” stand apart in the source; their conditions may differ.
Tests used:
immunoproteasome = molecular target: T1, immunoproteasome (Homo sapiens, UniProt P28062+P28065+P40306); assay: In vitro proteasome digestion of the precursor peptide, immunoproteasome; type: biochemical; settings: 6 h incubation; Edman sequencing and MALDI-TOF
T1 construct: Proteasomes were isolated from the EBV-transformed B-cell line; endogenous in cells; host or cells: LCL-721 (EBV-transformed B-cell line)
Protocol: (§1) Purification of 20S proteasomes, in vitro degradation of WT1.314-336 (SEQ ID NO: 6), and separation and analysis of cleavage products were performed as described (16). 10 nmol (27.6 µg) of WT1.314-336 were incubated for 6 h with 2 µg immunoproteasome or with 2 µg of constitutive proteasome, respectively, in digestion buffer (20 mM Tris-HCI; pH 7.6; 10 mM NaCl; 10 mM KCI; 2 mM MgCl2; 0.5 mM DTT) and the reaction stopped by freezing the reaction mixture at -80°C.
(§2) One crucial prerequisite for a peptide to be presented as a T-cell epitope is its proper excision from the protein. We analyzed in vitro digestion of the […] WT1-derived peptide 314-336 (SEQ ID NO: 6) encompassing the WT1.317-327 epitope […] (SEQ ID NO: 1) by constitutive as well as immunoproteasomes (Fig. 2). Proteasomes were isolated from the EBV-transformed B-cell line LCL-721.174 (constitutive proteasome) and the parental cell line LCL-721 (immunoproteasome, ref. 16) and were used for digestion with a 6-hour incubation period. A combination of Edman sequencing and MALDI-TOF mass spectrometry was subsequently performed to determine the identity and quantity of peptides generated after proteasome digestion. The amount of fragments detected is indicated.

constitutive proteasome = molecular target: T2, constitutive proteasome (Homo sapiens, UniProt P28072+P28074+Q99436); assay: In vitro proteasome digestion of the precursor peptide, constitutive proteasome; type: biochemical; settings: 6 h incubation; Edman sequencing and MALDI-TOF
T2 construct: Proteasomes were isolated from the EBV-transformed B-cell line; endogenous in cells; host or cells: LCL-721.174 (EBV-transformed B-cell line)
Protocol: as §1, §2

WT1.314-336: WT1-derived precursor peptide 314-336 encompassing the WT1.317-327 epitope (ASETSEKRPFMCAYPGCNKRYFK)
generation of C-terminal residue Tyr-327 (fragments detected) (immunoproteasome): generated as the major fragment (314-327); also recorded: complementary fragment 328-336 represented the other major fragment | processing of the N-terminus (immunoproteasome): No processing of the N-terminus was observed | cleavage site C-terminal to Tyr-327 (fragments detected) (constitutive proteasome): fragment 328-336 was efficiently generated | processing of the N-terminus Thr-317 (constitutive proteasome): a fragment was found sharing the N-terminus Thr-317 (T)

— EP1657250A1, “HLA-A *01-binding T-cell epitope of WT1” (Charité - Universitätsmedizin Berlin, priority 2004, dated 2006)
